Experimental data from the supplement of paper PMC5998384.

Experiments:
HeLa Kyoto [1] = experiment: solubility in G1/S (NP-40 vs SDS abundance) (log2 ratio); higher = more soluble; conditions: cell cycle stage: G1/S
HeLa Kyoto [2] = experiment: solubility change mitosis vs G1/S (difference of NP-40 vs SDS log2 ratios) (log2 ratio difference); higher = more soluble in mitosis
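For solubility change mitosis vs G1/S (difference of NP-40 vs SDS log2 ratios) in this document: synchronized HeLa Kyoto cells (double thymidine block for G1/S, nocodazole release for mitosis), protein amounts in NP-40 versus SDS lysates quantified by mass spectrometry, three biological replicates.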
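For solubility in G1/S (NP-40 vs SDS abundance) in this document: HeLa Kyoto cells arrested at G1/S by double thymidine block, proteins quantified by TMT10plex mass spectrometry in mild NP-40 versus SDS extracts, three biological replicates.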

## MDTDSQRSHLSSFTMKLMDKFHSPKIKRTPSKKGKPAEVSVKIPEKPVNKEATDRFLPEGYPLPLDLEQQAVEFMSTSAVASRSQRQKNLSWLEEKEKEVVSALRYFKTIVDKMAIDKKVLEMLPGSASKVLEAILPLVQNDPRIQHSSALSSCYSRVYQSLANLIRWSDQVMLEGVNSEDKEMVTTVKGVIKAVLDGVKELVRLTIEKQGRPSPTSPVKPSSPASKPDGPAELPLTDREVEILNKTTGMSQSTELLPDATDEEVAPPKPPLPGIRVVDNSPPPALPPKKRQSAPSPTRVAVVAPMSRATSGSSLPVGINRQDFDVDCYAQRRLSGGSHSYGGESPRLSPCSSIGKLSKSDEQLSSLDRDSGQCSRNTSCETLDHYDPDYEFLQQDLSNADQIPQQTAWNLSPLPESLGESGSPFLGPPFQLPLGGHPQPDGPLAPGQQTDTPPALPEKKRRSAASQTADGSGCRVSYERHPSQYDNISGEDLQSTAPIPSVPYAPFAAILPFQHGGSSAPVEFVGDFTAPESTGDPEKPPPLPEKKNKHMLAYMQLLEDYSEPQPSMFYQTPQNEHIYQQKNKLLMEVYGFSDSFSGVDSVQELAPPPALPPKQRQLEPPAGKDGHPRDPSAVSGVPGKDSRDGSERAPKSPDALESAQSEEEVDELSLIDHNEIMSRLTLKQEGDDGPDVRGGSGDILLVHATETDRKDLVLYCEAFLTTYRTFISPEELIKKLQYRYEKFSPFADTFKKRVSKNTFFVLVRVVDELCLVELTEEILKLLMELVFRLVCNGELSLARVLRKNILDKVDQKKLLRCATSSQPLAARGVAARPGTLHDFHSHEIAEQLTLLDAELFYKIEIPEVLLWAKEQNEEKSPNLTQFTEHFNNMSYWVRSIIMLQEKAQDRERLLLKFIKIMKHLRKLNNFNSYLAILSALDSAPIRRLEWQKQTSEGLAEYCTLIDSSSSFRAYRAALSEVEPPCIPYLGLILQDLTFVHLGNPDYIDGKVNFSKRWQQFNILDSMRCFQQAHYDMRRNDDIINFFNDFSDHLAEEALWELSLKIKPRNITRRKTDREEKT [RAPGEF1]
HeLa Kyoto [1]
  solubility in G1/S (log2): -0.18
HeLa Kyoto [2]
  solubility change mitosis (log2): 0.157

## MDVDAEREKITQEIKELERILDPGSSGSHVEISESSLESDSEADSLPSEDLDPADPPISEEERWGEASNDEDDPKDKTLPEDPETCLQLNMVYQEVIQEKLAEANLLLAQNREQQEELMRDLAGSKGTKVKDGKSLPPSTYMGHFMKPYFKDKVTGVGPPANEDTREKAAQGIKAFEELLVTKWKNWEKALLRKSVVSDRLQRLLQPKLLKLEYLHQKQSKVSSELERQALEKQGREAEKEIQDINQLPEEALLGNRLDSHDWEKISNINFEGSRSAEEIRKFWQNSEHPSINKQEWSREEEERLQAIAAAHGHLEWQKIAEELGTSRSAFQCLQKFQQHNKALKRKEWTEEEDRMLTQLVQEMRVGSHIPYRRIVYYMEGRDSMQLIYRWTKSLDPGLKKGYWAPEEDAKLLQAVAKYGEQDWFKIREEVPGRSDAQCRDRYLRRLHFSLKKGRWNLKEEEQLIELIEKYGVGHWAKIASELPHRSGSQCLSKWKIMMGKKQGLRRRRRRARHSVRWSSTSSSGSSSGSSGGSSSSSSSSSEEDEPEQAQAGEGDRALLSPQYMVPDMDLWVPARQSTSQPWRGGAGAWLGGPAASLSPPKGSSASQGGSKEASTTAAAPGEETSPVQVPARAHGPVPRSAQASHSADTRPAGAEKQALEGGRRLLTVPVETVLRVLRANTAARSCTQKEQLRQPPLPTSSPGVSSGDSVARSHVQWLRHRATQSGQRRWRHALHRRLLNRRLLLAVTPWVGDVVVPCTQASQRPAVVQTQADGLREQLQQARLASTPVFTLFTQLFHIDTAGCLEVVRERKALPPRLPQAGARDPPVHLLQASSSAQSTPGHLFPNVPAQEASKSASHKGSRRLASSRVERTLPQASLLASTGPRPKPKTVSELLQEKRLQEARAREATRGPVVLPSQLLVSSSVILQPPLPHTPHGRPAPGPTVLNVPLSGPGAPAAAKPGTSGSWQEAGTSAKDKRLSTMQALPLAPVFSEAEGTAPAASQAPALGPGQISVSCPESGLGQSQAPAASRKQGLPEAPPFLPAAPSPTPLPVQPLSLTHIGGPHVATSVPLPVTWVLTAQGLLPVPVPAVVSLPRPAGTPGPAGLLATLLPPLTETRAAQGPRAPALSSSWQPPANMNREPEPSCRTDTPAPPTHALSQSPAEADGSVAFVPGEAQVAREIPEPRTSSHADPPEAEPPWSGRLPAFGGVIPATEPRGTPGSPSGTQEPRGPLGLEKLPLRQPGPEKGALDLEKPPLPQPGPEKGALDLGLLSQEGEAATQQWLGGQRGVRVPLLGSRLPYQPPALCSLRALSGLLLHKKALEHKATSLVVGGEAERPAGALQASLGLVRGQLQDNPAYLLLRARFLAAFTLPALLATLAPQGVRTTLSVPSRVGSESEDEDLLSELELADRDGQPGCTTATCPIQGAPDSGKCSASSCLDTSNDPDDLDVLRTRHARHTRKRRRLV [SNAPC4]
HeLa Kyoto [1]
  solubility in G1/S (log2): 0.0147
HeLa Kyoto [2]
  solubility change mitosis (log2): -0.0345

## MDVHDLFRRLGAGAKFDTRRFSADAARFQIGKRKYDFDSSEVLQGLDFFGNKKSVPGVCGASQTHQKPQNGEKKEESLTERKREQSKKKRKTMTSEIASQEEGATIQWMSSVEAKIEDKKVQRESKLTSGKLENLRKEKINFLRNKHKIHVQGTDLPDPIATFQQLDQEYKINSRLLQNILDAGFQMPTPIQMQAIPVMLHGRELLASAPTGSGKTLAFSIPILMQLKQPANKGFRALIISPTRELASQIHRELIKISEGTGFRIHMIHKAAVAAKKFGPKSSKKFDILVTTPNRLIYLLKQDPPGIDLASVEWLVVDESDKLFEDGKTGFRDQLASIFLACTSHKVRRAMFSATFAYDVEQWCKLNLDNVISVSIGARNSAVETVEQELLFVGSETGKLLAVRELVKKGFNPPVLVFVQSIERAKELFHELIYEGINVDVIHAERTQQQRDNTVHSFRAGKIWVLICTALLARGIDFKGVNLVINYDFPTSSVEYIHRIGRTGRAGNKGKAITFFTEDDKPLLRSVANVIQQAGCPVPEYIKGFQKLLSKQKKKMIKKPLERESISTTPKCFLEKAKDKQKKVTGQNSKKKVALEDKS [DDX52]
HeLa Kyoto [1]
  solubility in G1/S (log2): -1.37
HeLa Kyoto [2]
  solubility change mitosis (log2): 1.04

## MEAPEGGGGGPAARGPEGQPAPEARVHFRVARFIMEAGVKLGMRSIPIATACTIYHKFFCETNLDAYDPYLIAMSSIYLAGKVEEQHLRTRDIINVSNRYFNPSGEPLELDSRFWELRDSIVQCELLMLRVLRFQVSFQHPHKYLLHYLVSLQNWLNRHSWQRTPVAVTAWALLRDSYHGALCLRFQAQHIAVAVLYLALQVYGVEVPAEVEAEKPWWQVFNDDLTKPIIDNIVSDLIQIYTMDTEIP [FAM58A]
HeLa Kyoto [1]
  solubility in G1/S (log2): -0.46
HeLa Kyoto [2]
  solubility change mitosis (log2): 0.235

## MEASRCRLSPSGDSVFHEEMMKMRQAKLDYQRLLLEKRQRKKRLEPFMVQPNPEARLRRAKPRASDEQTPLVNCHTPHSNVILHGIDGPAAVLKPDEVHAPSVSSSVVEEDAENTVDTASKPGLQERLQKHDISESVNFDEETDGISQSACLERPNSASSQNSTDTGTSGSATAAQPADNLLGDIDDLEDFVYSPAPQGVTVRCRIIRDKRGMDRGLFPTYYMYLEKEENQKIFLLAARKRKKSKTANYLISIDPVDLSREGESYVGKLRSNLMGTKFTVYDRGICPMKGRGLVGAAHTRQELAAISYETNVLGFKGPRKMSVIIPGMTLNHKQIPYQPQNNHDSLLSRWQNRTMENLVELHNKAPVWNSDTQSYVLNFRGRVTQASVKNFQIVHKNDPDYIVMQFGRVADDVFTLDYNYPLCAVQAFGIGLSSFDSKLACE [TULP3]
HeLa Kyoto [1]
  solubility in G1/S (log2): 0.0464
HeLa Kyoto [2]
  solubility change mitosis (log2): -0.00836

## MED13L
HeLa Kyoto [1]
  solubility in G1/S (log2): 0.0923
HeLa Kyoto [2]
  solubility change mitosis (log2): -0.119

## MEEVREGHALGGGMEADGPASLQELPPSPRSPSPPPSPPPLPSPPSLPSPAAPEAPELPEPAQPSEAHARQLLLEEWGPLSGGLELPQRLTWKLLLLRRPLYRNLLRSPNPEGINIYEPAPPTGPTQRPLETLGNFRGWYIRTEKLQQNQSWTVKQQCVDLLAEGLWEELLDDEQPAITVMDWFEDSRLDACVYELHVWLLAADRRTVIAQHHVAPRTSGRGPPGRWVQVSHVFRHYGPGVRFIHFLHKAKNRMEPGGLRRTRVTDSSVSVQLRE [NCCRP1]
HeLa Kyoto [1]
  solubility in G1/S (log2): 0.178
HeLa Kyoto [2]
  solubility change mitosis (log2): -0.0982

## MEEVTTCSFNSPLFRQEDDRGITYRIPALLYIPPTHTFLAFAEKRSTRRDEDALHLVLRRGLRIGQLVQWGPLKPLMEATLPGHRTMNPCPVWEQKSGCVFLFFICVRGHVTERQQIVSGRNAARLCFIYSQDAGCSWSEVRDLTEEVIGSELKHWATFAVGPGHGIQLQSGRLVIPAYTYYIPSWFFCFQLPCKTRPHSLMIYSDDLGVTWHHGRLIRPMVTVECEVAEVTGRAGHPVLYCSARTPNRCRAEALSTDHGEGFQRLALSRQLCEPPHGCQGSVVSFRPLEIPHRCQDSSSKDAPTIQQSSPGSSLRLEEEAGTPSESWLLYSHPTSRKQRVDLGIYLNQTPLEAACWSRPWILHCGPCGYSDLAALEEEGLFGCLFECGTKQECEQIAFRLFTHREILSHLQGDCTSPGRNPSQFKSN [NEU3]
HeLa Kyoto [1]
  solubility in G1/S (log2): -0.0555
HeLa Kyoto [2]
  solubility change mitosis (log2): -0.0358

## MEGRPPPEGRPPPRPRTGRAPRGRRRAVFAAVLHWSHITHLFENDRHFSHLSTLEREMAFRTEMGLYYSYFKTIVEAPSFLNGVWMIMNDKLTEYPLVINTLKRFNLYPEVILASWYRIYTKIMDLIGIQTKICWTVTRGEGLSPIESCEGLGDPACFYVAVIFILNGLMMALFFIYGTYLSGSRLGGLVTVLCFFFNHGECTRVMWTPPLRESFSYPFLVLQMLLVTHILRATKLYRGSLIALCISNVFFMLPWQFAQFVLLTQIASLFAVYVVGYIDICKLRKIIYIHMISLALCFVLMFGNSMLLTSYYASSLVIIWGILAMKPHFLKINVSELSLWVIQGCFWLFGTVILKYLTSKIFGIADDAHIGNLLTSKFFSYKDFDTLLYTCAAEFDFMEKETPLRYTKTLLLPVVLVVFVAIVRKIISDMWGVLAKQQTHVRKHQFDHGELVYHALQLLAYTALGILIMRLKLFLTPHMCVMASLICSRQLFGWLFCKVHPGAIVFAILAAMSIQGSANLQTQWNIVGEFSNLPQEELIEWIKYSTKPDAVFAGAMPTMASVKLSALRPIVNHPHYEDAGLRARTKIVYSMYSRKAAEEVKRELIKLKVNYYILEESWCVRRSKPGCSMPEIWDVEDPANAGKTPLCNLLVKDSKPHFTTVFQNSVYKVLEVVKE [DPY19L1]
HeLa Kyoto [1]
  solubility in G1/S (log2): -0.264
HeLa Kyoto [2]
  solubility change mitosis (log2): 0.0231

## MEKRLQEAQLYKEEGNQRYREGKYRDAVSRYHRALLQLRGLDPSLPSPLPNLGPQGPALTPEQENILHTTQTDCYNNLAACLLQMEPVNYERVREYSQKVLERQPDNAKALYRAGVAFFHLQDYDQARHYLLAAVNRQPKDANVRRYLQLTQSELSSYHRKEKQLYLGMFG [TTC9C]
HeLa Kyoto [1]
  solubility in G1/S (log2): 0.247
HeLa Kyoto [2]
  solubility change mitosis (log2): 0.459

## MEKSWMLWNFVERWLIALASWSWALCRISLLPLIVTFHLYGGIILLLLIFISIAGILYKFQDVLLYFPEQPSSSRLYVPMPTGIPHENIFIRTKDGIRLNLILIRYTGDNSPYSPTIIYFHGNAGNIGHRLPNALLMLVNLKVNLLLVDYRGYGKSEGEASEEGLYLDSEAVLDYVMTRPDLDKTKIFLFGRSLGGAVAIHLASENSHRISAIMVENTFLSIPHMASTLFSFFPMRYLPLWCYKNKFLSYRKISQCRMPSLFISGLSDQLIPPVMMKQLYELSPSRTKRLAIFPDGTHNDTWQCQGYFTALEQFIKEVVKSHSPEEMAKTSSNVTII [ABHD13]
HeLa Kyoto [1]
  solubility in G1/S (log2): -0.091
HeLa Kyoto [2]
  solubility change mitosis (log2): -0.176

## MELPAVNLKVILLGHWLLTTWGCIVFSGSYAWANFTILALGVWAVAQRDSIDAISMFLGGLLATIFLDIVHISIFYPRVSLTDTGRFGVGMAILSLLLKPLSCCFVYHMYRERGGELLVHTGFLGSSQDRSAYQTIDSAEAPADPFAVPEGRSQDARGY [AGTRAP]
HeLa Kyoto [1]
  solubility in G1/S (log2): 0.0387
HeLa Kyoto [2]
  solubility change mitosis (log2): -0.217
